The target of the experiment is T1, FcγRIIa R (human, UniProt P12318 34-217).
T1 construct: extracellular domain; also called FcgRIIa R type; 2aR
T1 sequence (looked up): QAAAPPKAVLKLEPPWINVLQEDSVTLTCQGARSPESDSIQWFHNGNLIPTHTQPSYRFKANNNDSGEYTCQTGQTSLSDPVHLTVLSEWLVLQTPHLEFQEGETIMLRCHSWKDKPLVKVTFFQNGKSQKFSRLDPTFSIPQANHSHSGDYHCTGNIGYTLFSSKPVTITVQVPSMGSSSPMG
Briefly: SPR Biacore; vs GpH7-B3/GpL16-k0 =100. Here is the method: Analysis of interaction between objective antibody and the FcγR was carried out using Biacore T100 (GE Healthcare). HBS-EP+ (GE Healthcare) was used as the running buffer, and the measurement temperature was set to 25° C. Chips produced by immobilizing the antigen peptide by the amine coupling method to a Series S Sencor Chip CM5 (GE Healthcare), or alternatively, chips produced by allowing preliminarily biotinylated antigen peptides to interact with and immobilize onto a Series S Sensor Chip SA (certified) (GE Healthcare) were used. Antibodies of interest were captured onto an antigen peptide-immobilized chip, and allowed to interact to each FcγR diluted with running buffer. To regenerate and repeatedly use the chip, the antibodies captured on the chip were washed off by reacting 10 mM glycine-HCl, pH 1.5.
The FcγR-binding activity of each antibody was assessed primarily using as an indicator the FcγR-binding activity and dissociation constant for FcγR.
On the technique in general: In SPR one partner is held on a chip, and binding of the other changes the refractive index at the surface.

B1: GpH7-B3 variant H268_12R/GpL16-k0 (antibody, human IgG1, kappa)
heavy: not shown
light: DIVMTQSPLSLPVTPGEPASISCQASESLVHSNRNTYLHWYLQKPGQSPQLLIYKVSNRFSGVPDRFSGSGSGTDFTLKISRVEAEDVGVYYCSQNTHVPPTFGQGTKVEIERTVAAPSVFIFPPSDEQLKSGTASVVCLLNNFYPREAKVQWKVDNALQSGNSQESVTEQDSKDSTYSLSSTLTLSKADYEKHKVYACEVTHQGLSSPVTKSFNRGEC
notes: also called Ho Ab H268_12R
For the molecule B1, the Ho/Con_2aR was 98.5 % of control.

B2: GpH7-B3 variant L235_09D/GpL16-k0 (antibody, human IgG1, kappa)
heavy: not shown
light: B1 light
notes: also called Ho Ab L235_09D
As for B2, the Ho/Con_2aR was 73 % of control.

B3: GpH7-B3 variant K334_19Q/GpL16-k0 (antibody, human IgG1, kappa)
heavy: not shown
light: B1 light
notes: also called Ho Ab K334_19Q
As to B3, the Ho/Con_2aR was 108 % of control.

B4: GpH7-B3 variant K334_20W/GpL16-k0 (antibody, human IgG1, kappa)
heavy: not shown
light: B1 light
notes: also called Ho Ab K334_20W
Take B4: the Ho/Con_2aR was 96.4 % of control.

B5: GpH7-B3 variant L235_20W/GpL16-k0 (antibody, human IgG1, kappa)
heavy: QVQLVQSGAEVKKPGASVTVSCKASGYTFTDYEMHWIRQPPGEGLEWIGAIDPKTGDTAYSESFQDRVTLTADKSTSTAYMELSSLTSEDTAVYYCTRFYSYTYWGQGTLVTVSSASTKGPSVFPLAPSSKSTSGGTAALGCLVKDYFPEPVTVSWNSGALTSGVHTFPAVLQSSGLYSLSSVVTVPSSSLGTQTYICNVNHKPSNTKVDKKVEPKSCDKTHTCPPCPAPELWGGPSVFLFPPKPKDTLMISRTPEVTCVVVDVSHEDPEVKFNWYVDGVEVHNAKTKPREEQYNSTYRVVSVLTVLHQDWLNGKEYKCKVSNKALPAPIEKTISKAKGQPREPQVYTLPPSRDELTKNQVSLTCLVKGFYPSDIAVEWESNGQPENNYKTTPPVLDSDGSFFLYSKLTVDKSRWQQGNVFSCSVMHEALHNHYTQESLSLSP
light: B1 light
notes: also called Ho Ab L235_20W
Take B5: the Ho/Con_2aR was 114 % of control.

B6: GpH7-B3 variant L234_20W/GpL16-k0 (antibody, human IgG1, kappa)
heavy: not shown
light: B1 light
notes: also called Ho Ab L234_20W
Regarding B6, the Ho/Con_2aR is 53.8 % of control.

B7: GpH7-B3 variant L328_02A/GpL16-k0 (antibody, human IgG1, kappa)
heavy: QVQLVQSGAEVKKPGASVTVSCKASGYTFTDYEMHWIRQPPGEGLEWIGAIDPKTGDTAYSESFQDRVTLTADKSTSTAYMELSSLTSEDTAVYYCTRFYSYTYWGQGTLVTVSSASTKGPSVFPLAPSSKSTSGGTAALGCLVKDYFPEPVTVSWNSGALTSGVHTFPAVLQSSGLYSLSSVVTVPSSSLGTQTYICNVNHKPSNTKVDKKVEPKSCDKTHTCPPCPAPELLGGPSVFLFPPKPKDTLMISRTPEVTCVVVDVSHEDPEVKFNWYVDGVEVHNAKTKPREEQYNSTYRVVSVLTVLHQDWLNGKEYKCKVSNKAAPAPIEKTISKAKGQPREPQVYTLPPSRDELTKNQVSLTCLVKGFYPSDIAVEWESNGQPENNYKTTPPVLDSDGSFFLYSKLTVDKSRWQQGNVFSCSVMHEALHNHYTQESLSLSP
light: B1 light
notes: also called Ho Ab L328_02A
Consider B7, for which the Ho/Con_2aR is 97 % of control.

B8: GpH7-B3 variant H268_15Y/GpL16-k0 (antibody, human IgG1, kappa)
heavy: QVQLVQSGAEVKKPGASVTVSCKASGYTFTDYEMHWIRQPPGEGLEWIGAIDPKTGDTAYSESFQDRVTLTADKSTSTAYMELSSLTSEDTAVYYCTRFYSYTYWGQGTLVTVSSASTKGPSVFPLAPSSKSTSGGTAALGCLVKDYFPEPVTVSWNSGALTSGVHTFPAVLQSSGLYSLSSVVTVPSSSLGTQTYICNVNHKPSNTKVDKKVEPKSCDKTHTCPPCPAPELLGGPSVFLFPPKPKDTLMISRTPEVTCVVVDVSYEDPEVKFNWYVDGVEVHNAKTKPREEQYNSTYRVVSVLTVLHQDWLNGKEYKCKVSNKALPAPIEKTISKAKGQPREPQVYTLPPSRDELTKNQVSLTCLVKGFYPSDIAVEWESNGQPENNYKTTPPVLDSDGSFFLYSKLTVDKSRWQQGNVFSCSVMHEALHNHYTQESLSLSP
light: B1 light
notes: also called Ho Ab H268_15Y
Take B8: the Ho/Con_2aR was 106 % of control.

B9: GpH7-B3 variant L328_10E/GpL16-k0 (antibody, human IgG1, kappa)
heavy: not shown
light: B1 light
notes: also called Ho Ab L328_10E
Turning to B9, the Ho/Con_2aR is 48.1 % of control.

B10: GpH7-B3 variant K326_20W/GpL16-k0 (antibody, human IgG1, kappa)
heavy: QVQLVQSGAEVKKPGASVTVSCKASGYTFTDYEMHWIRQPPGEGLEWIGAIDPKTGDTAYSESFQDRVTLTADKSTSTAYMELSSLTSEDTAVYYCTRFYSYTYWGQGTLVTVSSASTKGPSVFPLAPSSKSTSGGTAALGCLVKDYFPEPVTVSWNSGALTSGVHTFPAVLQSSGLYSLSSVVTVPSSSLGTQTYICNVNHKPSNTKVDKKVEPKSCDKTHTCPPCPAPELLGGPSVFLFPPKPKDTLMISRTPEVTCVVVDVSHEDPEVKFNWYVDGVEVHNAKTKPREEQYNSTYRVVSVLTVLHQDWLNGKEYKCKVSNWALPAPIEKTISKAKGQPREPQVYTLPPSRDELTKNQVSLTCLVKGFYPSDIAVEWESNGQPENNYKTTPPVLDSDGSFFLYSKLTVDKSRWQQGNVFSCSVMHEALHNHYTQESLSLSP
light: B1 light
notes: also called Ho Ab K326_20W
As to B10, the Ho/Con_2aR is 120 % of control.

B11: GpH7-B3 variant K334_08L/GpL16-k0 (antibody, human IgG1, kappa)
heavy: not shown
light: B1 light
notes: also called Ho Ab K334_08L
For B11, the Ho/Con_2aR is 105 % of control.

B12: GpH7-B3 variant K326_15Y/GpL16-k0 (antibody, human IgG1, kappa)
heavy: not shown
light: B1 light
notes: also called Ho Ab K326_15Y
Consider B12, for which the Ho/Con_2aR was 134 % of control.

B13: GpH7-B3 variant I336_08L/GpL16-k0 (antibody, human IgG1, kappa)
heavy: not shown
light: B1 light
notes: also called Ho Ab I336_08L
Regarding B13, the Ho/Con_2aR is 105 % of control.

B14: GpH7-B3 variant K334_02A/GpL16-k0 (antibody, human IgG1, kappa)
heavy: not shown
light: B1 light
notes: also called Ho Ab K334_02A
In the case of B14, the Ho/Con_2aR was 100 % of control.

B15: GpH7-B3 variant L235_15Y/GpL16-k0 (antibody, human IgG1, kappa)
heavy: not shown
light: B1 light
notes: also called Ho Ab L235_15Y
Turning to B15, the Ho/Con_2aR is 111 % of control.

B16: GpH7-B3 variant I332_14T/GpL16-k0 (antibody, human IgG1, kappa)
heavy: not shown
light: B1 light
notes: also called Ho Ab I332_14T
Regarding B16, the Ho/Con_2aR was 99.6 % of control.

B17: GpH7-B3 variant L328_13S/GpL16-k0 (antibody, human IgG1, kappa)
heavy: not shown
light: B1 light
notes: also called Ho Ab L328_13S
Regarding B17, the Ho/Con_2aR was 108 % of control.

B18: GpH7-B3 variant K326_03V/GpL16-k0 (antibody, human IgG1, kappa)
heavy: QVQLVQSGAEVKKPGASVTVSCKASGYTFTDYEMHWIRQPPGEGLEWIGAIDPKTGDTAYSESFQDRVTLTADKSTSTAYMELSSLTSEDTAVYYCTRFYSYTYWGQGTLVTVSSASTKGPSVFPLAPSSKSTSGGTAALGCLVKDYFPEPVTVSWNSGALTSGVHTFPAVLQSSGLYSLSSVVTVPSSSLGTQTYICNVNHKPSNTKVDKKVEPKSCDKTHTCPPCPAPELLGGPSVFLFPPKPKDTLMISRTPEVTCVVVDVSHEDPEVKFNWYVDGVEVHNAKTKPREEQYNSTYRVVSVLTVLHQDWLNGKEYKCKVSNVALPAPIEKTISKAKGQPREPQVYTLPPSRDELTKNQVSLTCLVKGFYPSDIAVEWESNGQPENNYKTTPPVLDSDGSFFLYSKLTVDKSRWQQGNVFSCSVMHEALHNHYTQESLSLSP
light: B1 light
notes: also called Ho Ab K326_03V
With B18, the Ho/Con_2aR was 139 % of control.

B19: GpH7-B3 variant L234_10E/GpL16-k0 (antibody, human IgG1, kappa)
heavy: not shown
light: B1 light
notes: also called Ho Ab L234_10E
As to B19, the Ho/Con_2aR is 39.9 % of control.

B20: GpH7-B3 variant N325_01G/GpL16-k0 (antibody, human IgG1, kappa)
heavy: not shown
light: B1 light
notes: also called Ho Ab N325_01G
With B20, the Ho/Con_2aR is 26.7 % of control.

B21: GpH7-B3 variant I336_06M/GpL16-k0 (antibody, human IgG1, kappa)
heavy: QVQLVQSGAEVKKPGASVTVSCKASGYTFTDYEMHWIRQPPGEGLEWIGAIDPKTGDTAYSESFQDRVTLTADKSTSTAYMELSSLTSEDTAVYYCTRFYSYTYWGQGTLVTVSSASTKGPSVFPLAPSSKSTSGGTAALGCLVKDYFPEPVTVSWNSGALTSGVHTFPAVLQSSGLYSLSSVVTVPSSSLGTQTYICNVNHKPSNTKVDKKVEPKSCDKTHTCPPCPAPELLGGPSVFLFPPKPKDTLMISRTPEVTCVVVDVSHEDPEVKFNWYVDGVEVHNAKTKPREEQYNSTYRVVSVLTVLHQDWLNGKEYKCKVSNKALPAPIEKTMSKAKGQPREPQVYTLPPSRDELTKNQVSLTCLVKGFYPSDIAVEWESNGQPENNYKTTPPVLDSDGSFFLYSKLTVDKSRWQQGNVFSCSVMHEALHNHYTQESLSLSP
light: B1 light
notes: also called Ho Ab I336_06M
Turning to B21, the Ho/Con_2aR was 96.4 % of control.

B22: GpH7-B3 variant L235_04F/GpL16-k0 (antibody, human IgG1, kappa)
heavy: not shown
light: B1 light
notes: also called Ho Ab L235_04F
Take B22: the Ho/Con_2aR was 98.9 % of control.

B23: GpH7-B3 variant K326_07I/GpL16-k0 (antibody, human IgG1, kappa)
heavy: not shown
light: B1 light
notes: also called Ho Ab K326_07I
Turning to B23, the Ho/Con_2aR was 133 % of control.

B24: GpH7-B3 variant K326_18N/GpL16-k0 (antibody, human IgG1, kappa)
heavy: not shown
light: B1 light
notes: also called Ho Ab K326_18N
In the case of B24, the Ho/Con_2aR was 113 % of control.

B25: GpH7-B3 variant K334_04F/GpL16-k0 (antibody, human IgG1, kappa)
heavy: not shown
light: B1 light
notes: also called Ho Ab K334_04F
Regarding B25, the Ho/Con_2aR is 110 % of control.

B26: GpH7-B3 variant L234_04F/GpL16-k0 (antibody, human IgG1, kappa)
heavy: not shown
light: B1 light
notes: also called Ho Ab L234_04F
Turning to B26, the Ho/Con_2aR is 43.3 % of control.

B27: GpH7-B3 variant K334_13S/GpL16-k0 (antibody, human IgG1, kappa)
heavy: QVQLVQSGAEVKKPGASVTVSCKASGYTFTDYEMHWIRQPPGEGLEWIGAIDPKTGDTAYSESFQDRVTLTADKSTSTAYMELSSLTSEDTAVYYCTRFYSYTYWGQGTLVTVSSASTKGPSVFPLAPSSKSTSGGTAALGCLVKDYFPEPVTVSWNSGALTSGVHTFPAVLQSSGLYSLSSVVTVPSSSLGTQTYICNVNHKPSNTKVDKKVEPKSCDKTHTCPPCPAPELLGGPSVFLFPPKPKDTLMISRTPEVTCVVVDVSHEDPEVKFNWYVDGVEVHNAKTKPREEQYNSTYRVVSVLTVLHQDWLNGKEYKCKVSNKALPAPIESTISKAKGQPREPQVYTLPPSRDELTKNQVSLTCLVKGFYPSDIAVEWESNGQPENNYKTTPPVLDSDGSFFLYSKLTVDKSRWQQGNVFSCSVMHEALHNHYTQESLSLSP
light: B1 light
notes: also called Ho Ab K334_13S
Consider B27, for which the Ho/Con_2aR is 106 % of control.

B28: GpH7-B3 variant K334_05P/GpL16-k0 (antibody, human IgG1, kappa)
heavy: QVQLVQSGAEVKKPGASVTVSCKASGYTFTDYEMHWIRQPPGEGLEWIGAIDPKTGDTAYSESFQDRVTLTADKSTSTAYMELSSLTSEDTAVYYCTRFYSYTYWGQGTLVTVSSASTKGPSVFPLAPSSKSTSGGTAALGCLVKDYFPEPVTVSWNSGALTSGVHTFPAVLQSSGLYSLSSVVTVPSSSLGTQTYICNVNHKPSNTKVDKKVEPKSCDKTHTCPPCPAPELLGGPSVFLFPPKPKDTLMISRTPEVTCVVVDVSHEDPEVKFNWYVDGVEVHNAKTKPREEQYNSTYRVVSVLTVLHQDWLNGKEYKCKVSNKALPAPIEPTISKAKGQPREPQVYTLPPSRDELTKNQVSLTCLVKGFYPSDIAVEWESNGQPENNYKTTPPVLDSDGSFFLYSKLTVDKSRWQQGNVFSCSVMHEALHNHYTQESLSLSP
light: B1 light
notes: also called Ho Ab K334_05P
Take B28: the Ho/Con_2aR was 102 % of control.

B29: GpH7-B3 variant K334_10E/GpL16-k0 (antibody, human IgG1, kappa)
heavy: not shown
light: B1 light
notes: also called Ho Ab K334_10E
For the molecule B29, the Ho/Con_2aR was 106 % of control.

B30: GpH7-B3 variant L328_09D/GpL16-k0 (antibody, human IgG1, kappa)
heavy: not shown
light: B1 light
notes: also called Ho Ab L328_09D
For B30, the Ho/Con_2aR was 68.8 % of control.

B31: GpH7-B3 variant N325_03V/GpL16-k0 (antibody, human IgG1, kappa)
heavy: not shown
light: B1 light
notes: also called Ho Ab N325_03V
For B31, the Ho/Con_2aR was 37.8 % of control.

B32: GpH7-B3 variant H268_20W/GpL16-k0 (antibody, human IgG1, kappa)
heavy: not shown
light: B1 light
notes: also called Ho Ab H268_20W
For the molecule B32, the Ho/Con_2aR is 110 % of control.

B33: GpH7-B3 variant L234_09D/GpL16-k0 (antibody, human IgG1, kappa)
heavy: not shown
light: B1 light
notes: also called Ho Ab L234_09D
B33: the Ho/Con_2aR was 42.8 % of control.

B34: GpH7-B3 variant I336_18N/GpL16-k0 (antibody, human IgG1, kappa)
heavy: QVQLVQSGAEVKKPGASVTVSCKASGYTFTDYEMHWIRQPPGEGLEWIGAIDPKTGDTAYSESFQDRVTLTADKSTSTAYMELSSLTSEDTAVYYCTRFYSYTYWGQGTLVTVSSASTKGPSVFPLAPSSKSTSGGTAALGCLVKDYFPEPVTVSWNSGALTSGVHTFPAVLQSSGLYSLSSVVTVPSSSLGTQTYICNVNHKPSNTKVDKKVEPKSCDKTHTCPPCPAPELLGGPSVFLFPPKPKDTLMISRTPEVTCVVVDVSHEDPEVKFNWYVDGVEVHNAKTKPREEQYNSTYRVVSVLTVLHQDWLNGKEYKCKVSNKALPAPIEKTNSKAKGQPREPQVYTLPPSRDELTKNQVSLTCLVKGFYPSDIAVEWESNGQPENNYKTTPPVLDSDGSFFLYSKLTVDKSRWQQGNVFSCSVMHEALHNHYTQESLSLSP
light: B1 light
notes: also called Ho Ab I336_18N
In the case of B34, the Ho/Con_2aR was 94.5 % of control.

B35: GpH7-B3 variant K326_12R/GpL16-k0 (antibody, human IgG1, kappa)
heavy: not shown
light: B1 light
notes: also called Ho Ab K326_12R
For the molecule B35, the Ho/Con_2aR is 95.7 % of control.

B36: GpH7-B3 variant K326_08L/GpL16-k0 (antibody, human IgG1, kappa)
heavy: not shown
light: B1 light
notes: also called Ho Ab K326_08L
As for B36, the Ho/Con_2aR was 131 % of control.

B37: GpH7-B3 variant K334_12R/GpL16-k0 (antibody, human IgG1, kappa)
heavy: not shown
light: B1 light
notes: also called Ho Ab K334_12R
Take B37: the Ho/Con_2aR was 110 % of control.

B38: GpH7-B3 variant I332_06M/GpL16-k0 (antibody, human IgG1, kappa)
heavy: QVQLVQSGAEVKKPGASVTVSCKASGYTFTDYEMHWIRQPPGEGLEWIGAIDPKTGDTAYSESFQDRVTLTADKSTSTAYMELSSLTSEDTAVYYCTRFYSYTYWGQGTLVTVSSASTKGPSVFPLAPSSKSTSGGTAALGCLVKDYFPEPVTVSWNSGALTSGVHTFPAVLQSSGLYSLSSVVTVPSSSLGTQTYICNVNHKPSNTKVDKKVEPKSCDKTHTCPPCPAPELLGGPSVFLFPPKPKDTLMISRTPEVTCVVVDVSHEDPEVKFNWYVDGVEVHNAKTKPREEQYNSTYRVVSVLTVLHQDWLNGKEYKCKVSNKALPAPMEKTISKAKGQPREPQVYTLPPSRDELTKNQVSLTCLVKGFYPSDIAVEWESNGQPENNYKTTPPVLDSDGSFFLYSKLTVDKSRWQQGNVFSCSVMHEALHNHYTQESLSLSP
light: B1 light
notes: also called Ho Ab I332_06M
Consider B38, for which the Ho/Con_2aR was 105 % of control.

B39: GpH7-B3 variant K326_04F/GpL16-k0 (antibody, human IgG1, kappa)
heavy: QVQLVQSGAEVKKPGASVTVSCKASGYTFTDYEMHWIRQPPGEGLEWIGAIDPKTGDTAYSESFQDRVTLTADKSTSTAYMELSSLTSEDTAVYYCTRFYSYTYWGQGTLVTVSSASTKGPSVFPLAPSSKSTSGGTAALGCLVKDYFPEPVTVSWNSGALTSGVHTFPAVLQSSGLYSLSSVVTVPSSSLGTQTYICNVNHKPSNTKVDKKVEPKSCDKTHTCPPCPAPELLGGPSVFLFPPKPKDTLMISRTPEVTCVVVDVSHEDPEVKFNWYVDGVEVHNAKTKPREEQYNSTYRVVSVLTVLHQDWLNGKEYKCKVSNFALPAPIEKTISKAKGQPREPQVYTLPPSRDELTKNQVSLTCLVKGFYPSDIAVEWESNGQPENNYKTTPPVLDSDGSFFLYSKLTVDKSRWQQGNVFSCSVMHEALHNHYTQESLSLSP
light: B1 light
notes: also called Ho Ab K326_04F
Regarding B39, the Ho/Con_2aR is 133 % of control.

B40: GpH7-B3 variant L328_14T/GpL16-k0 (antibody, human IgG1, kappa)
heavy: not shown
light: B1 light
notes: also called Ho Ab L328_14T
As to B40, the Ho/Con_2aR is 118 % of control.

These data come from patent US20180155451A1 (published 2018).
